{"source": "patent US9157067B2", "about": "“Pluripotent cells from mammalian late epiblast layer” (priority 2006, dated 2015)", "molecules": {"B1": {"name": "Noggin: natural BMP inhibitor (protein, UniProt Q13253 28-232, looked up)", "Noggin": "QHYLHIRPAPSDNLPLVDLIEHPDPIFDPKEKDLNETLLRSLLGGHYDPGFMATSPPEDRPGGGGGAAGGAEDLAELDQLLRQRPSGAMPSEIKGLEFSEGLAQGKKQRLSKKLRRKLQMWLWSQTFCPVLYAWNDLGSRFWPRYVKVGSCFSKRSCSVPEGMVCKPSKSVHLTVLRWRCQRRGGQRCGWIPIQYPIISECKCSC"}, "B2": {"name": "Activin: activin agonist growth factor, dimeric polypeptide stimulating the Activin/Nodal pathway (protein, UniProt P08476 311-426, looked up)", "Inhibin beta A chain": "GLECDGKVNICCKKQFFVSFKDIGWNDWIIAPSGYHANYCEGECPSHIAGTSGSSLSFHSTVINHYRMRGHSPFANLKSCCVPTKLRPMSMLYYDDGQNIIKKDIQNMIVEECGCS"}, "B3": {"name": "FGF4: growth factor added to rat epiblast cultures (protein, UniProt P08620 31-206, looked up)", "Fibroblast growth factor 4": "APTAPNGTLEAELERRWESLVALSLARLPVAAQPKEAAVQSGAGDYLLGIKRLRRLYCNVGIGFHLQALPDGRIGGAHADTRDSLLELSPVERGVVSIFGVASRFFVAMSSKGKLYGSPFFTDECTFKEILLPNNYNAYESYKYPGMFIALSKNGKTKKGNRVSPTMKVTHFLPRL"}}, "key": {"[1]": {"system": "Rat EpiSCs", "experiment": "Oct-4 immunostaining of rat EpiSCs grown in supplemented CDM", "assay_type": "cell-based", "settings": "after one week in CDM; 5B431542 10 uM; BMP4 10 ng/ml + 5B431542 10 uM; Activin 10 ng/ml + Noggin 100 ng/ml", "description": "hESCs, mouse ESCs or EpiSCS were fixed for 20 minutes at 4° C. in 4% paraformaldehyde (PFA) and then washed three times in PBS. Cells were incubated for 20 minutes at room temperature in PBS containing 10% goat serum (Serotec) and subsequently incubated over night at 4° C. with primary antibody diluted in 1% goat serum in PBS as follows: SSEA-3 (1:100, Santa Cruz), SSAE-1 (1:25, gift from PW Andrews), Tra-1-60 (1:100, Santa CruZ), Oct-4 (1:100, SantaCruz), Sox2 (1:100, Abeam ab15830), Nanog (1:100, Abeam), Blirnpl (Abeam). Cells were then washed three times in PBS and incubated with fluorescein-Isothiocyanate-conjugated anti-mouse IgG or IgM (Sigma 1:200 in 1% goat serum in PBS) or rat IgM (Jackson laboratory 1:300 in goat serum in PBS) or rabbit IgG (Jackson laboratory 1:200 in donkey serum in PBS) for two hours at room temperature. Unbound secondary antibody was removed by 3 washes in PBS. Hoechst 33258 was added to the first wash (Sigma 1:10000).\nRat EpiSCs were grown in CDM supplemented in the presence of Activin (10 ng/ml), 5B431542 (10 uM), BMP4 10 ng/ml+5B431542 (10 uM) or Activin (10 ng/ml)+Noggin (IOOng/ml). After one week, the expression of the pluripotency marker Oct-4 was analysed using immunostaining. […] Similar results were obtained with mouse EpiSCs."}, "[2]": {"system": "rat epiblast layers", "experiment": "Derivation of EpiSC lines from rat epiblast layers", "assay_type": "cell-based", "description": "The hypothesis that Activin and FGF signalling in pluripotency are conserved in mammalian development is supported by the ability of Activin/Nodal signalling to maintain long-term pluripotency of both human ESCs and mouse EpiSCs. As a further test of this hypothesis, we attempted to derive EpiSCs from rats, a species from which embryonic stem cell derivation has been problematic. Following the method we established in the mouse, epiblast layers were dissected from rat embryos at pre-gastrula stages (E 7.5-8.5) and grown on fibronectin-coated or FBS coated plates in CDM supplemented with Activin and FGF. […] Nevertheless, four EpiSC lines were derived out of 14 embryos of the Wistar strain and 1 EpiSC line was derived out of 20 embryos from the Sprague-Dawley strain using CDM supplemented with Activin alone."}, "[3]": {"settings": "Rat Sprague-Dawley, 8.5 d.p.c, 37° C., fibro"}}}
{"molecule": "B1", "values": [{"measurement": "expression of the pluripotency marker Oct-4", "setting": "[1]", "value": "did not decrease expression of Oct-4"}]}
{"molecule": "B2", "values": [{"measurement": "Lines derived", "setting": "[2]; [3]", "value": 1}, {"measurement": "Rate %", "setting": "[2]; [3]", "value": 5, "unit": "%"}, {"measurement": "Rate %", "setting": "[2]; Rat Water (Wistar), 8.5 d.p.c, 38° C., FCS", "value": 35, "unit": "%"}]}
{"molecule": "B3", "values": [{"measurement": "differentiation of early epiblast cultures", "setting": "[2]; addition to CDM supplemented with Activin", "value": "induced differentiation"}]}
